Laboratory results from article PMC4855144.

Assays:
[1] = target: GST-Cdc42 constitutively active (CA/Q61L), preloaded with GTPγS (UniProt P60953); experiment: GST pull-down, western blot quantified with ImageJ; settings: GST-Cdc42 CA on Glutathione-Sepharose beads pre-loaded with GTPγS; lysates from HEK293T cells; input set at 100%; 3 independent experiments; parent: est. 19; read off a plot
[2] = target: GST-Cdc42 dominant negative (DN/T17N), preloaded with GDP (UniProt P60953); experiment: GST pull-down, western blot quantified with ImageJ; settings: GST-Cdc42 DN on Glutathione-Sepharose beads pre-loaded with GDP; lysates from HEK293T cells; input set at 100%; 3 independent experiments; parent: est. 60; read off a plot
GST-Cdc42 dominant negative (DN/T17N), preloaded with GDP, sequence (P60953 whole entry T17N, the tested form may be a part): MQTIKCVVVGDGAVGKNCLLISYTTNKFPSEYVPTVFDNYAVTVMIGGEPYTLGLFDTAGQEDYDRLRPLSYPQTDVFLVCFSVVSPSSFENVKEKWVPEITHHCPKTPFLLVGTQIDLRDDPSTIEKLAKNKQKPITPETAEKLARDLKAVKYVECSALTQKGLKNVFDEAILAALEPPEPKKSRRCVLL

[3] = target: GST-Cdc42 constitutively active (CA/Q61L), preloaded with GTPγS (UniProt P60953); experiment: pull-down; Glutathione-Sepharose beads coated with GST alone or GST-GTPase fusions pre-loaded with GDP (DN) or GTPγS (CA), incubated with lysates of HEK293T cells expressing GFP-CRN7 WT or CRIB mutants; blot with GFP mAb K3-184-2 or anti-N-WASP; ImageJ quantification, input set at 100%

GST-Cdc42 constitutively active (CA/Q61L), preloaded with GTPγS, sequence (P60953 whole entry Q61L, the tested form may be a part): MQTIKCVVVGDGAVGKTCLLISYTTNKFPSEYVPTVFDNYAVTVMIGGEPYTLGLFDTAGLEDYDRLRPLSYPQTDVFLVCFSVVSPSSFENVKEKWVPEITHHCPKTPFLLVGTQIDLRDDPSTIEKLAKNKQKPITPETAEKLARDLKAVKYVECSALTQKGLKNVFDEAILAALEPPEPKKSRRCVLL
GFP-CRN7 WT (human Coronin7, full length, GFP on its N-terminus) (from UniProt P57737) CT-CRIB L>A; T>A; P>A (… > …); residue numbers not printed, sequence (P57737 whole entry, change not shown): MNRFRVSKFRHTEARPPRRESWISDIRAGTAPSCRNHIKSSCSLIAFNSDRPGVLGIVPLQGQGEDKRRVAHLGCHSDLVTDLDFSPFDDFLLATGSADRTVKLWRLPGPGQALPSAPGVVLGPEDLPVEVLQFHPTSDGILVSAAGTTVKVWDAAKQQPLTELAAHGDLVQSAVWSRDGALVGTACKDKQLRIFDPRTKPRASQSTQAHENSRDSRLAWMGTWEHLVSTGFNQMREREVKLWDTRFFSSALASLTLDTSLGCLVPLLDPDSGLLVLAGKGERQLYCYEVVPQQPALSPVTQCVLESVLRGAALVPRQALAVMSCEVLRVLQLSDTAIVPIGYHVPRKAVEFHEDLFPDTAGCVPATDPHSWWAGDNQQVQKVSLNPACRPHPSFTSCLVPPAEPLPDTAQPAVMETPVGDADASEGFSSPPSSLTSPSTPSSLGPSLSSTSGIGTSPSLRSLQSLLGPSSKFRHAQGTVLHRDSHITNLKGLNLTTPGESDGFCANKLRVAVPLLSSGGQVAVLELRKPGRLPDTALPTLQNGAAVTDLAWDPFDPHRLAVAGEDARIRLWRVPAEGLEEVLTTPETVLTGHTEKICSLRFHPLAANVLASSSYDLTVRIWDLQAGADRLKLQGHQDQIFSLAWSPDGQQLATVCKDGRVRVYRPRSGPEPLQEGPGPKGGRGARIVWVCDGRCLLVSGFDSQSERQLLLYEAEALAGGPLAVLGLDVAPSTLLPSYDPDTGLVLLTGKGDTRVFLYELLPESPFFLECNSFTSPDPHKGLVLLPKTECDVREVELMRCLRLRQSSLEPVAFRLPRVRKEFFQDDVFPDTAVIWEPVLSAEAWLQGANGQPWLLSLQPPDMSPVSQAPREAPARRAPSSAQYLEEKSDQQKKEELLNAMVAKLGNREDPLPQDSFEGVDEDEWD
GFP-CRN7 WT (human Coronin7, full length, GFP on its N-terminus) (from UniProt P57737) NT-CRIB S>A; P>A (… > …); residue numbers not printed, sequence (P57737 whole entry, change not shown): as above

Substance | response [1] | response [2] | percent of input bound [3]
GFP-CRN7 WT (human Coronin7, full length, GFP on its N-terminus) (from UniProt P57737) CT-CRIB L>A; T>A; P>A (… > …); residue numbers not printed | 41 % of input | 57 % of input | –
GFP-CRN7 WT (human Coronin7, full length, GFP on its N-terminus) (from UniProt P57737 1-925) (natural protein) | – | – | 30 % of input
GFP-CRN7 WT (human Coronin7, full length, GFP on its N-terminus) (from UniProt P57737) NT-CRIB S>A; P>A (… > …); residue numbers not printed | 32 % of input | 67 % of input | –
